Assays:
[1] = biological target: PAN domain of SpG-type LecRLK-2 (amino acids 322-400), secreted His-Avi-sfGFP fusion (Salix purpurea); assay: SEC
[2] = biological target: PAN domain of SpG-type LecRLK-2R (amino acids 322-400), secreted His-Avi-sfGFP fusion (Salix purpurea); assay: SEC

percent in higher-order complex [1] [%]	percent monomeric [1] [%]	percent monomeric [2] [%]	Substance
48.2	51.8	–	PAN domain of SpG-type LecRLK-2 (amino acids 322-400), secreted His-Avi-sfGFP fusion (domain or fragment)
–	–	26.4	PAN domain of SpG-type LecRLK-2R (amino acids 322-400), secreted His-Avi-sfGFP fusion (domain or fragment)

— paper doi:10.1101/2023.06.15.545202
